Molecular target: mono-ubiquitin (UniProt P0CG48 1-76)
Test: MST

Kd: 57.7 µM
B1: human α5 subunit, wild type, recombinant (natural protein)
chain: MFLTRSEYDRGVNTFSPEGRLFQVEYAIEAIKLGSTAIGIQTSEGVCLAVEKRITSPLMEPSSIEKIVEIDAHIGCAMSGLIADAKTLIDKARVETQNHWFTYNETMTVESVTQAVSNLALQFGEEDADPGAMSRPFGVALLFGGVDEKGPQLFHMDPSGTFVQCDARAIGSASEGAQSSLQEVYHKSMTLKEAIKSSLIILKQVMEEKLNATNIELATVQPGQNFHMFTKEELEEVIKDI
modifications: labelled with RED-NHS 2nd Generation dye
